In one assay the target is T1, HLA-B*0702 (human).
T1 construct: HLA class I molecule on HLA-typed EBV-LCLs from which the polypeptides were eluted; also called HLA-B7
Nature of the assay: polypeptides eluted from HLA of HLA-typed EBV-LCLs (HLA elution database); allele as in Table 1.

The target in assay [1] is T2, Bob1 (B cell Oct binding protein 1, gene POU2AF1) peptide on HLA-B*07:02 (human).
T2 peptide: APAPTAVVL
Nature of the assay: multimer staining.

For a further assay, the target named is T3, HLA-A*0201 (human).
T3 construct: HLA class I molecule on HLA-typed EBV-LCLs from which the polypeptides were eluted; also called HLA-A2
In words: polypeptides eluted from HLA of HLA-typed EBV-LCLs (HLA elution database); allele as in Table 1.

The target of assay [2] is T4, Bob1 (B cell Oct binding protein 1, gene POU2AF1) peptide on HLA-A*02:01 (human).
T4 peptide: YALNHTLSV
Nature of the assay: multimer staining.

B1: BOB144 peptide APAPTAVVL (peptide)
peptide: APAPTAVVL
notes: Bob1-derived peptide from the HLA elution set
Turning to B1, the binding result in the assay with HLA-B*0702 is on record as “binds”.

B2: BOB114 peptide APARPYQGV (peptide)
peptide: APARPYQGV
notes: as for B1
On to B2, for which the binding result in the assay with HLA-B*0702 was “binds”.

B3: TCR of T cell clone 4G11 (TCR-4G11) (TCR, V domains shown)
Valpha: GENVEQHPSTLSVQEGDSAVIKCTYSDSASNYFPWYKQELGKGPQLIIDIRSNVGEKKDQRIAVTLNKTAKHFSLHITETQPEDSAVYFCAASKGSSNTGKLIFGQGTTLQVKP
Vbeta: DTEVTQTPKHLVMGMTNKKSLKCEQHMGHRAMYWYKQKAKKPPELMFVYSYEKLSINESVPSRFSPECPNSSLLNLHLHALQPEDSALYLCASSHGPASYEQYFGPGTRLTVT
As to B3, the binding result in assay [1] is “recognises”.

B4: BOB1197 peptide APALPGPQF (peptide)
peptide: APALPGPQF
notes: as for B1
B4: the binding result with HLA-B*0702 is listed as “binds”.

B5: BOB1245 peptide YALNHTLSV (peptide)
peptide: YALNHTLSV
notes: as for B1
For B5, the binding result in the assay with HLA-A*0201 is on record as “binds”.

B6: TCR of T cell clone 3C10 (TCR, V domains shown)
Valpha: GENVEQHPSTLSVQEGDSAVIKCTYSDSASNYFPWYKQELGKGPQLIIDIRSNVGEKKDQRIAVTLNKTAKHFSLHITETQPEDSAVYFCAASTGGGYSTLTFGKGTMLLVSP
Vbeta: DAGVIQSPRHEVTEMGQEVTLRCKPISGHDYLFWYRQTMMRGLELLIYFNNNVPIDDSGMPEDRFSAKMPNASFSTLKIQPSEPRDSAVYFCASSGQGITLAGANVLTFGAGSRLTVL
For the molecule B6, the binding result in assay [2] is given as “recognises”.
